Measured values: patent publication US20210363241A1

What was measured:
[1] = target: Cynomolgus monkey CD226 on the cell surface of stably transfected HEK 293 cells (cynomolgus monkey); experiment: flow cytometry on HEK 293 cells expressing cynomolgus CD226, control IgG (denominator of the ratio)
[2] = target: Human CD226 on the cell surface of stably transfected HEK 293 cells (human) (UniProt Q15762); experiment: flow cytometry on HEK 293 cells expressing human CD226, control IgG (denominator of the ratio)
Sequence of Human CD226 on the cell surface of stably transfected HEK 293 cells (human) (Q15762 19-336 limits assumed): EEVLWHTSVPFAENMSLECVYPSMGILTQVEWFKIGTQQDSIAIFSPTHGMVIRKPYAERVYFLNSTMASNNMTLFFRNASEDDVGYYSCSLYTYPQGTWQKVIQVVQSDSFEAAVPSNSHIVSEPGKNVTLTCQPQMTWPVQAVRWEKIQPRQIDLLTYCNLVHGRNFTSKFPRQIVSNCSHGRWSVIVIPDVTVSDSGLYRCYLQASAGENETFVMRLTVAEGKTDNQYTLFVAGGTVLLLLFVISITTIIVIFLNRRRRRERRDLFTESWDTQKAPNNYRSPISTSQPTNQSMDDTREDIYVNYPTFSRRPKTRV

Sequence of Cynomolgus monkey CD226 on the cell surface of stably transfected HEK 293 cells (cynomolgus monkey) (chain, as listed by the source): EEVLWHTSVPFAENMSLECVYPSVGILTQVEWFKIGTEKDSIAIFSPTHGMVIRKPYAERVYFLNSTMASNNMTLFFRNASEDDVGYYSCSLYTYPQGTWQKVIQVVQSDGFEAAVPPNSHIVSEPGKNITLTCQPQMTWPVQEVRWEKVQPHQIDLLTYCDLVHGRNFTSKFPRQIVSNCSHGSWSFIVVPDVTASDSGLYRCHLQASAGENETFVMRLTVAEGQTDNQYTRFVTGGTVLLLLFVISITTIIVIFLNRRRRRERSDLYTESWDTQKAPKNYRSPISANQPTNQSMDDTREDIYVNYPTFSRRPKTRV

**Q.** Which results are given for Control human IgG1 (antibody)?
**A.** MFI [1]: 3.94; MFI [2]: 8.98
